Assay [1] has as its target S. cerevisiae cytochrome c oxidase (complex IV), CIV (S. cerevisiae (endogenous in strain BY 4741)) (UniProt P00427).
Assay [2] has as its target S. cerevisiae CIII2CIV1/2 respiratory supercomplex (S. cerevisiae (endogenous in strain BY 4741)) (UniProt P07143). Nature of the assay: cryo-EM structure.
Assay [3] has as its target S. cerevisiae cytochrome c oxidase (complex IV), CIV (S. cerevisiae (endogenous in strain BY 4741)) (UniProt P00427). Nature of the assay: cryo-EM structure.

Sequence of UniProt P00427 (P00427 whole entry, looked up, one chain of several): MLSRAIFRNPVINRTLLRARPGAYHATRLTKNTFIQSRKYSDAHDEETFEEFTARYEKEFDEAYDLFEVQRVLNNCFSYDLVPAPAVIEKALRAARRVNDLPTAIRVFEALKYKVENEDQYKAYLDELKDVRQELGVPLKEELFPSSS
Sequence of UniProt P07143 (P07143 whole entry, looked up, one chain of several): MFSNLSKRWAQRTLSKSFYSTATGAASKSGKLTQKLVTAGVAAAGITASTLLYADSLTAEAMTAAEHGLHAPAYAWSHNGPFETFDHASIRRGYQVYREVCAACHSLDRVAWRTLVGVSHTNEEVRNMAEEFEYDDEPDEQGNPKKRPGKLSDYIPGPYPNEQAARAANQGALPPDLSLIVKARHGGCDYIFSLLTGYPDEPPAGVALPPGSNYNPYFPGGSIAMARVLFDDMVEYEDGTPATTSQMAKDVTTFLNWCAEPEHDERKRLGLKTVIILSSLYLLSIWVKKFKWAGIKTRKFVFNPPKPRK

As a reminder, the stoichiometry N is a count of units in the complex or per binding partner. Regarding “S. cerevisiae cytochrome c (isoform-1 cyt. c) (from UniProt P00044 1-109) (natural protein)”, the cyt. c:O2 oxidoreductase activity of isolated CIV at a cyt. c:CIV ratio of one in assay [1] is 3 e^-/s. In assay [2], the stoichiometry N came out at 1. Besides, in assay [3], the cyt. c occupancy from integrated density (map with cyt. c at CIV) worked out at 1 and the percent of particle images with cyt. c bound at CIV came out at 33%.

(Values after paper doi:10.1101/2020.11.27.401935.)
